For one substance, apoptosis assay on NB4 cells, conjugate with AraC 250 nM and cell death of HL60 cells (Annexin V and propidium iodide staining), conjugate in combination with AraC 1 µM results are on record in patent US20050008648A1.

The assay deals with CD33 (UniProt P20138). The assay is described as follows: cell-based or functional assay.
Chain of CD33 (P20138 18-364 limits assumed): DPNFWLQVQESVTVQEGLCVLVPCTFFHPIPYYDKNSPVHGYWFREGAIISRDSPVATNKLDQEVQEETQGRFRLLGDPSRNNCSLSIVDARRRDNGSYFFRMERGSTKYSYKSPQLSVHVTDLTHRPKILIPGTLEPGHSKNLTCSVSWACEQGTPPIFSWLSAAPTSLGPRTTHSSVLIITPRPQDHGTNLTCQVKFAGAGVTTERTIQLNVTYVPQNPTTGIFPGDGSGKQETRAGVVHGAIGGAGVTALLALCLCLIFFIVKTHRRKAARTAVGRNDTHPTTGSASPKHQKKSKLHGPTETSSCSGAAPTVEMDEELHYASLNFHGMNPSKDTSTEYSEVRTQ

Chain of HuM195-dCK conjugate (B2R8V6 whole entry): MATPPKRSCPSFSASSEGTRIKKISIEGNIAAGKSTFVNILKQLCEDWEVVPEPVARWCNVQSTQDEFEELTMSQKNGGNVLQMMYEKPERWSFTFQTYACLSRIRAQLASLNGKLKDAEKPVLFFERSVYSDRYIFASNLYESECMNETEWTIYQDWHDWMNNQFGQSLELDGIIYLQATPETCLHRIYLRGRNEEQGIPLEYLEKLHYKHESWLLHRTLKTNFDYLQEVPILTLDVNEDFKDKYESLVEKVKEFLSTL

For HuM195-dCK conjugate, the apoptosis assay on NB4 cells, conjugate with AraC 250 nM worked out at 65%; the cell death of HL60 cells (Annexin V and propidium iodide staining), conjugate in combination with AraC 1 µM was found to be 70%.
